The values below are quoted from earlier work in publication PMC5432642.

Usually Kd stands for the equilibrium constant for the complex coming apart.

For this data set, the target named is C3b C3b (Homo sapiens) (UniProt P01024).
Sequence of C3b C3b (Homo sapiens) (P01024 566-670): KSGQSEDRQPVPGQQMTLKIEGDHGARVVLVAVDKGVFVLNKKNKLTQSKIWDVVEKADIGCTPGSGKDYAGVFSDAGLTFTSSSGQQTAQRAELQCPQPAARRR

Sequence of FH19–20 FH19-20 (P08603 1107-1231): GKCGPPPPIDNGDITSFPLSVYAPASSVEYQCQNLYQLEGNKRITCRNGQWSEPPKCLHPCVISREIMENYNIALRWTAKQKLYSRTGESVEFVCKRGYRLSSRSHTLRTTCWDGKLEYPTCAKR

As to FH19–20 FH19-20 (from UniProt P08603), the Kd was 5 µM.
